Results: patent publication US5861477A (priority 1996, dated 1999)
“And” between values parts separate entries of the source, which are not always exact repeats. Identical values can stand only once.

B1: RNase: bovine ribonuclease A (protein, UniProt P61823 27-150, looked up)
Ribonuclease pancreatic: KETAAAKFERQHMDSSTSAASSSNYCNQMMKSRNLTKDRCKPVNTFVHESLADVQAVCSQKNVACKNGQTNCYQSYSTMSITDCRETGSSKYPNCAYKTTQANKHIIVACEGNPYVPVHFDASV

Assays:
yeast RNA [1] = assay: Ribonuclease activity: hydrolysis of yeast RNA; assay type: biochemical
Experimental: Measurement of Ribonuclease Activity. The catalytic activity of RNase and RnPepz were determined by their hydrolytic effects on yeast RNA (Kunitz, M. (1946) J. Biol. Chem. 164, 563-569; Gutte, B. and […]. Biol. Chem. 246, 1922-1941). […] The decrease in absorbance at 300 nm with time was measured on the recording spectrophotometer. Reaction mixtures that contained no catalyst as well as mixtures containing LyPepz or other cyclic peptides unrelated to RNase were used as controls. The kinetic parameters of the hydrolytic activities were determined by Lineweaver-Burk plots (Lineweaver, H. and Burk, D. (1934) J. Amer. Chem. Soc. 56, 658-666) of 1/absorbance change per minute against 1/substrate concentration in mg per ml. […] The change in absorbance with the test samples (RnPepz) was correlated for the small change obtained with the same amount of unrelated peptides (negative controls) acting on the corresponding concentration of substrate. […] The effects of disulfide-bond reduction on RNase and RnPepz activities were determined by premixing each catalyst (RNase, 1.095×10^-4 μmole; […] The reactions were monitored by the decrease in absorbance at 300 nm as above. The effects of inhibitors (denatured DNA or Ag^+) on activities were also done by pre-mixing RNase or RnPepz with denatured DNA (250 μg) or with 10 molar excess of AgNO3 prior to addition to RNA, using the same amounts of catalyst and substrate described for DTT. Denaturation of DNA was done by boiling a solution in water (1 mg/ml) for 10 min, then chilling immediately in ice.

[2] = system: M. lysodeikticus cell wall; settings: 0.125M NaCl; Neville et al. 1972; cited from earlier work
[3] = system: M. lysodeikticus cell wall; assay: Lysozyme activity: hydrolysis of M. lysodeikticus; assay type: biochemical, Micrococcus lysodeikticus
Experimental: Measurement of Lysozyme Activity. […] The decrease in turbidity was measured at 450 nm on a recording spectrophotometer. […] Kinetic constants were determined from the linear plots of 1/initial velocity (in change of absorbance/min) against 1/substrate concentration in mg/ml as described (Lineweaver, H. and Burk, D. (1934) J. Amer. Chem. Soc. 56, 658-666). […] Applicant always dedicated a separate spectrophotometer cuvette for this positive control. […] The decrease in turbidity was monitored at room temperature at 450 nm.

yeast RNA [4] = settings: Gutte et al. 1971; Edelhock and Coleman 1956; cited from earlier work
[5] = 10 molar excess, pre-mixed 3 hr
[6] = hydrolysis of M. lysodeikticus, 25° C., 0.125M NaCl
[7] = hydrolysis of yeast RNA, 0.1M sodium acetate, pH 5.0, 25° C.

Row | Molecule | hydrolytic activity on yeast RNA (yeast RNA [1]; in words) | Km reported value [2] [mg/L] | activity on M. lysodeikticus in presence of histamine [3, 5] | activity on M. lysodeikticus in presence of imidazole [3, 5] | activity on M. lysodeikticus in presence of tryptamine [3, 5] | Km [3, 6] [mg/L] | kcat [3, 6] [OD units/μmole/sec] | activity on yeast RNA in presence of denatured DNA (yeast RNA [1]; 250 μg denatured DNA) | activity on yeast RNA in presence of Ag^+ (heavy metals) (yeast RNA [1]; 10 molar excess of AgNO3) | hydrolytic activity on yeast RNA at 10° C. (yeast RNA [1]; 10° C.) | Km (yeast RNA [1]; [7]) [mg/L] | kcat (yeast RNA [1]; [7]) [OD units/μmole/sec] | Km reported values (yeast RNA [4])
1 | LYZ: hen egg lysozyme | no effect | 129 | completely inhibited | completely inhibited | completely inhibited | 120.6 ± 4.0 | 9.26 ± 0.12 |  |  |  |  |  | 
2 | B1 |  |  |  |  |  |  |  | completely inhibited | completely inhibited | neither RnPepz nor RNase had any measurable hydrolytic activity | 1254 ± 460 | 14.05 ± 6.85 | 1.20 mg/mL and 1.25 mg/mL
